Measurements as given in PMC3636572.

Assays:
porcine thrombin = porcine thrombin (pig, UniProt Q19AZ8;Q19AZ8 316-364;365-623); assay: filter binding
prothrombin [1] = biological target: T1, prothrombin (Homo sapiens, UniProt P00734 44-622); assay: filter binding
beta-thrombin = beta-thrombin (UniProt P00734;P00734;P00734 328-363;364-425;437-622); assay: filter binding
prothrombin [2] = biological target: T1, prothrombin; assay: SPR

B1: RNAR9D-14T (XNA)
RNA: GGCGGUCGAUCACACAGUUCAAACGUAAUAAGCCAAUGUACGAGGCAGACGACUCGCC
modifications: 2'-fluoro on all C and U; purines 2'-OH
In the case of B1, the Kd (porcine thrombin) is reported as 5 nM, the Kd (prothrombin [1]) is reported as 10 nM and the Kd (beta-thrombin) is reported as 20 nM.

B2: biotin-RNAR9D-14T (XNA)
RNA: B1 RNA
modifications: 2'-fluoro on all C and U; purines 2'-OH
In the case of B2, the Kd (prothrombin [2]) is reported as 1.4 nM.
